Source: patent publication US8524227B2, “Anti-IL-TIF antibodies” (ZymoGenetics, Inc., priority 2002, dated 2013)

What was measured:
BaF3/CRF2-4 cells = test: Alamar Blue proliferation assay, BaF3/CRF2-4 cells; type: cell-based, murine
[1] = molecular target: T1, CRF2-4/zcytor11 heterodimeric receptor (Homo sapiens, UniProt Q08334+Q8N6P7, R518G); test: Alamar Blue proliferation assay, BaF3/CRF2-4/zcytor11 cells; type: cell-based; conditions: 50 ng/ml IL-TIF-CEE
T1 construct: BaF3 cells expressing the full-length CFR2-4 receptor were constructed; expressed in transfected cells
T1 sequence (Q8N6P7 16-574 R518G): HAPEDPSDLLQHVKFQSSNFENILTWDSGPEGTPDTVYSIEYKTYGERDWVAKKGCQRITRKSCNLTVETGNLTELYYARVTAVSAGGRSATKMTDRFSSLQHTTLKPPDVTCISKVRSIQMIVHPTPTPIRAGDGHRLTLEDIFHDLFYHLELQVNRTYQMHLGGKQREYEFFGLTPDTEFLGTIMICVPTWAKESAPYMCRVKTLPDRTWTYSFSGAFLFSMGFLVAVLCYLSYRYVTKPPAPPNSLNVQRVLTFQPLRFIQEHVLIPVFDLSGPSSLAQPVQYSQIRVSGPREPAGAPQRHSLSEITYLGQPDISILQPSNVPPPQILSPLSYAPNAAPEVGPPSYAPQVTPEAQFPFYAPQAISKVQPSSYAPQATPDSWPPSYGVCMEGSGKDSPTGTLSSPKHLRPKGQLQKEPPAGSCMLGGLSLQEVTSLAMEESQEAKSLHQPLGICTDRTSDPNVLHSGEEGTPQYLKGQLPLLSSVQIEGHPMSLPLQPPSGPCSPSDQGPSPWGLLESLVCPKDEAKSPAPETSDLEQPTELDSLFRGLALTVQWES
T1 sequence (Q08334 20-325): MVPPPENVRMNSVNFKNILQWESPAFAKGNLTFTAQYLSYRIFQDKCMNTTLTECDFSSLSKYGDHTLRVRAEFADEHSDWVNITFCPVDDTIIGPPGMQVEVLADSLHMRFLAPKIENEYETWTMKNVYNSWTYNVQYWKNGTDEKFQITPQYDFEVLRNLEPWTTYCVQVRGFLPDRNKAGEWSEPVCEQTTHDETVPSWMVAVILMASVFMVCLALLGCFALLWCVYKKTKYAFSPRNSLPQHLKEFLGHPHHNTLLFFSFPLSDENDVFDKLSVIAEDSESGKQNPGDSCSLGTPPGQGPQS
Experimental: BaF3/CRF2-4/zcytor11 cells were spun down and washed in the complete media, described in Example 21A above, but without mIL-3 (hereinafter referred to as “mIL-3 free media”). The cells were spun and washed 3 times to ensure the removal of the mIL-3 Cells were then counted in a hemacytometer. Cells were plated in a 96-well format at 5000 cells per well in a volume of 100 μl per well using the mIL-3 free media.
Proliferation of the BaF3/CRF2-4/zcytor11 cells was assessed using IL-TIF-CEE protein diluted with mIL-3 free media to 50, 10, 2, 1, 0.5, 0.25, 0.13, 0.06 ng/ml concentrations. 100 μl of the diluted protein was added to the BaF3/CRF2-4/zcytor11 cells. The total assay volume is 200 μl. […] Alamar Blue gives a fluourometric readout based on number of live cells, and is thus a direct measurement of cell proliferation in comparison to a negative control. […] Plates were read on the Finax™ plate reader (Molecular Devices Sunnyvale, Calif.) using the SoftMax™ Pro program, at wavelengths 544 (Excitation) and 590 (Emmission). […] The response, as measured, was approximately 15-fold over background at the high end of 50 ng/ml down to a 2-fold induction at the low end of 0.06 ng/ml. […]
IL-TIF protein (SEQ ID NO:3) was diluted to 200 pg/ml in mIL-3 free media. […] Plates were read on the Wallac Victor 2 1420 Multilabel Counter (Wallac, Turku, Finland) at wavelengths 530 (Excitation) and 590 (Emmssion). […]

BaF3 wild type cells = test: Alamar Blue proliferation assay, BaF3 wild type cells; type: cell-based, murine

- proliferative response over background [1]: approximately 15 fold
B1: IL-TIF-CEE: IL-TIF polypeptide containing C-terminal GluGlu (EE) tag, purified from BHK 570 cells (protein)
chain: APISSHCRLDKSNFQQPYITNRTFMLAKEASLADNNTDVRLIGEKLFHGVSMSERCYLMKQVLNFTLEEVLFPQSDRFQPYMQEVVPFLARLSNRLSTCHIEGDDLHIQRNVQKLKDTVKKLGESGEIKAIGELDLLFMSLRNACIEYMPME
- proliferation in response to IL-TIF-CEE (BaF3/CRF2-4 cells): did not proliferate
- proliferation in response to IL-TIF-CEE (BaF3 wild type cells): did not proliferate
